Earlier results on one substance are cited in publication PMC2848813.

A word on the Kd: it is the concentration at which binding is half-saturated.

The data set concerns the target Hsp33 (Escherichia coli) (UniProt P0A6Y5).

For Hsp33 (from UniProt P0A6Y5), the Kd is 600 nM.
